# Data: the supplement of paper PMC5998384
# Tests used:
# HeLa Kyoto [1] = assay: solubility in G1/S (NP-40 vs SDS abundance) (log2 ratio); higher = more soluble; conditions: cell cycle stage: G1/S
# HeLa Kyoto [2] = assay: melting temperature (median over replicates), in situ; higher = more thermally stable
# HeLa Kyoto [3] = assay: solubility change mitosis vs G1/S (difference of NP-40 vs SDS log2 ratios) (log2 ratio difference); higher = more soluble in mitosis
# HeLa Kyoto [4] = assay: thermal stability score vs G1/S (z-score of summed log2 fold changes over temperatures); higher = more thermally stable than in G1/S
# 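Wherever melting temperature (median over replicates), in situ is given: HeLa Kyoto cells synchronized by double thymidine or nocodazole block, proteins quantified by TMT10plex mass spectrometry, three independent biological replicates.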
# 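Wherever solubility change mitosis vs G1/S (difference of NP-40 vs SDS log2 ratios) is given: synchronized HeLa Kyoto cells (double thymidine block for G1/S, nocodazole release for mitosis), protein amounts in NP-40 versus SDS lysates quantified by mass spectrometry, three biological replicates.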
# 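Wherever solubility in G1/S (NP-40 vs SDS abundance) is given: HeLa Kyoto cells arrested at G1/S by double thymidine block, proteins quantified by TMT10plex mass spectrometry in mild NP-40 versus SDS extracts, three biological replicates.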
# 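Wherever thermal stability score vs G1/S (z-score of summed log2 fold changes over temperatures) is given: synchronized HeLa Kyoto cells, proteins quantified by TMT10plex mass spectrometry, three biological replicates, mitosis taken 0.5 h after nocodazole release, G1/S directly after double thymidine block.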
Substance,solubility in G1/S (log2) (HeLa Kyoto [1]),melting temperature (HeLa Kyoto [2]; cell cycle stage: G1/S) [°C],melting temperature (HeLa Kyoto [2]; cell cycle stage: mitosis) [°C],solubility change mitosis (log2) (HeLa Kyoto [3]),thermal stability score (HeLa Kyoto [4]; cell cycle stage: early G1 (4.5 h after nocodazole release)),thermal stability score (HeLa Kyoto [4]; cell cycle stage: mitosis)
MEETIKDPPTSAVLLDHCHFSQVIFNSVEKFYIPGGDVTCHYTFTQHFIPRRKDWIGIFRVGWKTTREYYTFMWVTLPIDLNNKSAKQQEVQFKAYYLPKDDEYYQFCYVDEDGVVRGASIPFQFRPENEEDILVVTTQGEVEEIEQHNKELCKENQELKDSCISLQKQNSDMQAELQKKQEELETLQSINKKLELKVKEQKDYWETELLQLKEQNQKMSSENEKMGIRVDQLQAQLSTQEKEMEKLVQGDQDKTEQLEQLKKENDHLFLSLTEQRKDQKKLEQTVEQMKQNETTAMKKQQELMDENFDLSKRLSENEIICNALQRQKERLEGENDLLKRENSRLLSYMGLDFNSLPYQVPTSDEGGARQNPGLAYGNPYSGIQESSSPSPLSIKKCPICKADDICDHTLEQQQMQPLCFNCPICDKIFPATEKQIFEDHVFCHSL [CALCOCO2],0.203,50.5,51,-0.0722,-0.458,-0.851
MVNSSRVQPQQPGDAKRPPAPRAPDPGRLMAGCAAVGASLAAPGGLCEQRGLEIEMQRIRQAAARDPPAGAAASPSPPLSSCSRQAWSRDNPGFEAEEEEEEVEGEEGGMVVEMDVEWRPGSRRSAASSAVSSVGARSRGLGGYHGAGHPSGRRRRREDQGPPCPSPVGGGDPLHRHLPLEGQPPRVAWAERLVRGLRGLWGTRLMEESSTNREKYLKSVLRELVTYLLFLIVLCILTYGMMSSNVYYYTRMMSQLFLDTPVSKTEKTNFKTLSSMEDFWKFTEGSLLDGLYWKMQPSNQTEADNRSFIFYENLLLGVPRIRQLRVRNGSCSIPQDLRDEIKECYDVYSVSSEDRAPFGPRNGTAWIYTSEKDLNGSSHWGIIATYSGAGYYLDLSRTREETAAQVASLKKNVWLDRGTRATFIDFSVYNANINLFCVVRLLVEFPATGGVIPSWQFQPLKLIRYVTTFDFFLAACEIIFCFFIFYYVVEEILEIRIHKLHYFRSFWNCLDVVIVVLSVVAIGINIYRTSNVEVLLQFLEDQNTFPNFEHLAYWQIQFNNIAAVTVFFVWIKLFKFINFNRTMSQLSTTMSRCAKDLFGFAIMFFIIFLAYAQLAYLVFGTQVDDFSTFQECIFTQFRIILGDINFAEIEEANRVLGPIYFTTFVFFMFFILLNMFLAIINDTYSEVKSDLAQQKAEMELSDLIRKGYHKALVKLKLKKNTVDDISESLRQGGGKLNFDELRQDLKGKGHTDAEIEAIFTKYDQDGDQELTEHEHQQMRDDLEKEREDLDLDHSSLPRPMSSRSFPRSLDDSEEDDDEDSGHSSRRRGSISSGVSYEEFQVLVRRVDRMEHSIGSIVSKIDAVIVKLEIMERAKLKRREVLGRLLDGVAEDERLGRDSEIHREQMERLVREELERWESDDAASQISHGLGTPVGLNGQPRPRSSRPSSSQSTEGMEGAGGNGSSNVHV [PKD2],0.00411,52.1,–,-0.0995,–,–
MSGLDGVKRTTPLQTHSIIISDQVPSDQDAHQYLRLRDQSEATQVMAEPGEGGSETVALPPPPPSEEGGVPQDAAGRGGTPQIRVVGGRGHVAIKAGQEEGQPPAEGLAAASVVMAADRSLKKGVQGGEKALEICGAQRSASELTAGAEAEAEEVKTGKCATVSAAVAERESAEVVKEGLAEKEVMEEQMEVEEQPPEGEEIEVAEEDRLEEEAREEEGPWPLHEALRMDPLEAIQLELDTVNAQADRAFQQLEHKFGRMRRHYLERRNYIIQNIPGFWMTAFRNHPQLSAMIRGQDAEMLRYITNLEVKELRHPRTGCKFKFFFRRNPYFRNKLIVKEYEVRSSGRVVSLSTPIIWRRGHEPQSFIRRNQDLICSFFTWFSDHSLPESDKIAEIIKEDLWPNPLQYYLLREGVRRARRRPLREPVEIPRPFGFQSG [TSPYL1],-0.443,51.2,49.9,0.141,–,–
MAASRSTRVTRSTVGLNGLDESFCGRTLRNRSIAHPEEISSNSQVRSRSPKKRPEPVPIQKGNNNGRTTDLKQQSTRESWVSPRKRGLSSSEKDNIERQAIENCERRQTEPVSPVLKRIKRCLRSEAPNSSEEDSPIKSDKESVEQRSTVVDNDADFQGTKRACRCLILDDCEKREIKKVNVSEEGPLNSAVVEEITGYLAVNGVDDSDSAVINCDDCQPDGNTKQNSIGSYVLQEKSVAENGDTDTQTSMFLDSRKEDSYIDHKVPCTDSQVQVKLEDHKIVTACLPVEHVNQLTTEPATGPFSETQSSLRDSEEEVDVVGDSSASKEQCKENTNNELDTSLESMPASGEPEPSPVLDCVSAQMMSLSEPQEHRYTLRTSPRRAAPTRGSPTKNSSPYRENGQFEENNLSPNETNATVSDNVSQSPTNPGEISQNEKGICCDSQNNGSEGVSKPPSEARLNIGHLPSAKESASQHITEEEDDDPDVYYFESDHVALKHNKDYQRLLQTIAVLEAQRSQAVQDLESLGRHQREALKNPIGFVEKLQKKADIGLPYPQRVVQLPEIVWDQYTHSLGNFEREFKNRKRHTRRVKLVFDKVGLPARPKSPLDPKKDGESLSYSMLPLSDGPEGSSSRPQMIRGRLCDDTKPETFNQLWTVEEQKKLEQLLIKYPPEEVESRRWQKIADELGNRTAKQVASRVQKYFIKLTKAGIPVPGRTPNLYIYSKKSSTSRRQHPLNKHLFKPSTFMTSHEPPVYMDEDDDRSCFHSHMNTAVEDASDDESIPIMYRNLPEYKELLQFKKLKKQKLQQMQAESGFVQHVGFKCDNCGIEPIQGVRWHCQDCPPEMSLDFCDSCSDCLHETDIHKEDHQLEPIYRSETFLDRDYCVSQGTSYNYLDPNYFPANR [ZZZ3],-0.198,48.9,49.1,0.273,–,–
MADYWKSQPKKFCDYCKCWIADNRPSVEFHERGKNHKENVAKRISEIKQKSLDKAKEEEKASKEFAAMEAAALKAYQEDLKRLGLESEILEPSITPVTSTIPPTSTSNQQKEKKEKKKRKKDPSKGRWVEGITSEGYHYYYDLISGASQWEKPEGFQGDLKKTAVKTVWVEGLSEDGFTYYYNTETGESRWEKPDDFIPHTSDLPSSKVNENSLGTLDESKSSDSHSDSDGEQEAEEGGVSTETEKPKIKFKEKNKNSDGGSDPETQKEKSIQKQNSLGSNEEKSKTLKKSNPYGEWQEIKQEVESHEEVDLELPSTENEYVSTSEADGGGEPKVVFKEKTVTSLGVMADGVAPVFKKRRTENGKSRNLRQRGDDQ [WBP4],-0.703,–,54.7,0.763,–,–
MAAAAPNAGGSAPETAGSAEAPLQYSLLLQYLVGDKRQPRLLEPGSLGGIPSPAKSEEQKMIEKAMESCAFKAALACVGGFVLGGAFGVFTAGIDTNVGFDPKDPYRTPTAKEVLKDMGQRGMSYAKNFAIVGAMFSCTECLIESYRGTSDWKNSVISGCITGGAIGFRAGLKAGAIGCGGFAAFSAAIDYYLR [TIMM22],0.0827,56,56.3,-0.0464,–,–
MDTLDRVVKPKTKRAKRFLEKREPKLNENIKNAMLIKGGNANATVTKVLKDVYALKKPYGVLYKKKNITRPFEDQTSLEFFSKKSDCSLFMFGSHNKKRPNNLVIGRMYDYHVLDMIELGIENFVSLKDIKNSKCPEGTKPMLIFAGDDFDVTEDYRRLKSLLIDFFRGPTVSNIRLAGLEYVLHFTALNGKIYFRSYKLLLKKSGCRTPRIELEEMGPSLDLVLRRTHLASDDLYKLSMKMPKALKPKKKKNISHDTFGTTYGRIHMQKQDLSKLQTRKMKGLKKRPAERITEDHEKKSKRIKKN [RPF2],-2.68,–,53.4,1.42,–,–
MSLVDLGKKLLEAARAGQDDEVRILMANGAPFTTDWLGTSPLHLAAQYGHYSTTEVLLRAGVSRDARTKVDRTPLHMAASEGHASIVEVLLKHGADVNAKDMLKMTALHWATEHNHQEVVELLIKYGADVHTQSKFCKTAFDISIDNGNEDLAEILQIAMQNQINTNPESPDTVTIHAATPQFIIGPGGVVNLTGLVSSENSSKATDETGVSAVQFGNSSTSVLATLAALAEASAPLSNSSETPVVATEEVVTAESVDGAIQQVVSSGGQQVITIVTDGIQLGNLHSIPTSGIGQPIIVTMPDGQQVLTVPATDIAEETVISEEPPAKRQCIEIIENRVESAEIEEREALQKQLDEANREAQKYRQQLLKKEQEAEAYRQKLEAMTRLQTNKEAV [GABPB1],0.111,46.9,49.7,-0.139,–,–
MAGQHLPVPRLEGVSREQFMQHLYPQRKPLVLEGIDLGPCTSKWTVDYLSQVGGKKEVKIHVAAVAQMDFISKNFVYRTLPFDQLVQRAAEEKHKEFFVSEDEKYYLRSLGEDPRKDVADIRKQFPLLKGDIKFPEFFKEEQFFSSVFRISSPGLQLWTHYDVMDNLLIQVTGKKRVVLFSPRDAQYLYLKGTKSEVLNIDNPDLAKYPLFSKARRYECSLEAGDVLFIPALWFHNVISEEFGVGVNIFWKHLPSECYDKTDTYGNKDPTAASRAAQILDRALKTLAELPEEYRDFYARRMVLHIQDKAYSKNSE [TYW5],-0.0115,53.8,53.8,-0.114,–,–
MRKIDLCLSSEGSEVILATSSDEKHPPENIIDGNPETFWTTTGMFPQEFIICFHKHVRIERLVIQSYFVQTLKIEKSTSKEPVDFEQWIEKDLVHTEGQLQNEEIVAHDGSATYLRFIIVSAFDHFASVHSVSAEGTVVSNLSS [HSPB11],0.137,53.3,55.1,-0.328,–,–
USP32,-0.319,50.4,50.3,-0.0623,–,–
MPPERRRRMKLDRRTGAKPKRKPGMRPDWKAGAGPGGPPQKPAPSSQRKPPARPSAAAAAIAVAAAEEERRLRQRNRLRLEEDKPAVERCLEELVFGDVENDEDALLRRLRGPRVQEHEDSGDSEVENEAKGNFPPQKKPVWVDEEDEDEEMVDMMNNRFRKDMMKNASESKLSKDNLKKRLKEEFQHAMGGVPAWAETTKRKTSSDDESEEDEDDLLQRTGNFISTSTSLPRGILKMKNCQHANAERPTVARISSVQFHPGAQIVMVAGLDNAVSLFQVDGKTNPKIQSIYLERFPIFKACFSANGEEVLATSTHSKVLYVYDMLAGKLIPVHQVRGLKEKIVRSFEVSPDGSFLLINGIAGYLHLLAMKTKELIGSMKINGRVAASTFSSDSKKVYASSGDGEVYVWDVNSRKCLNRFVDEGSLYGLSIATSRNGQYVACGSNCGVVNIYNQDSCLQETNPKPIKAIMNLVTGVTSLTFNPTTEILAIASEKMKEAVRLVHLPSCTVFSNFPVIKNKNISHVHTMDFSPRSGYFALGNEKGKALMYRLHHYSDF [UTP18],-2.03,–,52.7,0.81,–,–
MASTGSQASDIDEIFGFFNDGEPPTKKPRKLLPSLKTKKPRELVLVIGTGISAAVAPQVPALKSWKGLIQALLDAAIDFDLLEDEESKKFQKCLHEDKNLVHVAHDLIQKLSPRTSNVRSTFFKDCLYEVFDDLESKMEDSGKQLLQSVLHLMENGALVLTTNFDNLLELYAADQGKQLESLDLTDEKKVLEWAQEKRKLSVLHIHGVYTNPSGIVLHPAGYQNVLRNTEVMREIQKLYENKSFLFLGCGWTVDDTTFQALFLEAVKHKSDLEHFMLVRRGDVDEFKKLRENMLDKGIKVISYGDDYADLPEYFKRLTCEISTRGTSAGMVREGQLNGSSAAHSEIRGCST [FAM118B],0.418,49.3,50.5,-0.123,–,–
